# Measurements from patent US20240117030A1 (Pfizer, published 2024).
# Numbering of substitutions follows the chain as printed.
# B1: IL413TSLP-0001 (trispecific antibody, human IgG1, kappa, lambda)
# heavy: EVTLRESGPALVKPTQTLTLTCTFSGFSLSNFGEGLSWIRQPPGKGLEWLAHIYWDDDKRYNPSLKSRLTISKDTSRNQVVLTMTNMDPVDTATYYCARRETVFYWYFDVWGQGTTVTVSSASTKGPSVFPEAPSSKSTSGGTAALGCLVKDYFPEPVTVSWNSGALTSGVHTFPAVLQSSGLYSLGSVVTVPSSSLGTQTYICNVNHKPSNTKVDKKVEPKSCDKTHTCPPCPAPEAAGAPSVFLFPPKPKDTLMISRTPEVTCVVVDVSHEDPEVKFNWYVDGVEVHNAKTKPREEQYNSTYRVVSVLTVLHQDWLNGKEYKCKVSNKALPAPIEKTISKAKGQPREPQVYTLPPCREEMTKNQVSLSCAVKGFYPSDIAVEWESNGQPENNYKTTPPVLDSDGSFFLVSKLTVDKSRWQQGNVFSCSVMHEALHNHYTQKSLSLSPGK
# chain 1: QMQLVESGGGVVQPGRSLRLSCAASGFTFRTYGMHWVRQAPGKGLEWVAVIWYDGSNKHYADSVKGRFTITRDNSKNTLNLQMNSLRAEDTAVYYCARAPQWELVHEAFDIWGQGTMVTVSSGQPKAAPSVTLFPPSSEELQANKATLVCLISDFYPGAVTVAWKADSSPVKAGVETTTPSKQSNNKYAASSYLSLTPEQWKSHRSYSCQVTHEGSTVEKTVAPTECSGGGGSEVQLVESGGGLVQPGGSLRLSCAASGFTFSSYAMSWVRQAPGKGLEWVASISSGDTTYYPDSVKGRFTISRDNAKNSLYLQMNSLRAEDTAVYYCARNEGYYFGLTLWGQGTLVTVSSASTKGPSVFPKAPSSKSTSGGTAALGCLVKDYFPEPVTVSWNSGALTSGVHTFPAVLQSSGLYSLSSSVTVPSSSLGTQTYICNVNHKPSNTKVDKKVEPKSCDKTHTCPPCPAPEAAGAPSVFLFPPKPKDTLMISRTPEVTCVVVDVSHEDPEVKFNWYVDGVEVHNAKTKPREEQYNSTYRVVSVLTVLHQDWLNGKEYKCKVSNKALPAPIEKTISKAKGQPREPQVCTLPPSREEMTKNQVSLWCLVKGFYPSDIAVEWESNGQPENNYKTTPPVLDSDGSFFLYSKLTVDKSRWQQGNVFSCSVMHEALHNHYTQKSLSLSPGK
# light 1: DIQMTQSPSSLSASVGDRVTITCKASQSVDEDGDSYMNWYQQKPGKAPKLLIYAASNLESGVPSRFSGSGSGTDFTLTISSLQPEDFATYYCQQSNEDPPTFGGGTKVEIKRTVAAPSVFIFPPSDEQLKSGTASVSCLLNNFYPREAKVQWKVDNALQSGNSQESVTEQDSKDSTYSLKSTLTLSKADYEKHKVYACEVTHQGLSSPVTKSFNRGEC
# light 2: B1 light 1 with Q27E, E31H, D32F, D34W, Y36L, M37V, N38H, A54R, P100W, K180D
# chain 2: SYVLTQPPSVSVAPGQTARITCGGNNLGSKSVHWYQQKPGQAPVLVVYDDSDRPSWIPERFSGSNSGNTATLTISRGEAGDEADYYCQVWDSSSDHVVFGGGTKLTVLASTKGPSVFPLAPSSKSTSGGTAALGCLVKDYFPEPVTVSWNSGALTSGVHTFPAVLQSSGLYSLSSVVTVPSSSLGTQTYICNVNHKPSNTKVDKKVEPKSC
# B2: IL413TSLP-0007 (trispecific antibody, human IgG1, kappa, lambda)
# heavy: B1 heavy
# chain 1: SYVLTQPPSVSVAPGQTARITCGGNNLGSKSVHWYQQKPGQAPVLVVYDDSDRPSWIPERFSGSNSGNTATLTISRGEAGDEADYYCQVWDSSSDHVVFGGGTKLTVLASTKGPSVFPLAPSSKSTSGGTAALGCLVKDYFPEPVTVSWNSGALTSGVHTFPAVLQSSGLYSLSSVVTVPSSSLGTQTYICNVNHKPSNTKVDKKVEPKSCGGGGSEVQLVESGGGLVQPGGSLRLSCAASGFTFSSYAMSWVRQAPGKGLEWVASISSGDTTYYPDSVKGRFTISRDNAKNSLYLQMNSLRAEDTAVYYCARNEGYYFGLTLWGQGTLVTVSSASTKGPSVFPKAPSSKSTSGGTAALGCLVKDYFPEPVTVSWNSGALTSGVHTFPAVLQSSGLYSLSSSVTVPSSSLGTQTYICNVNHKPSNTKVDKKVEPKSCDKTHTCPPCPAPEAAGAPSVFLFPPKPKDTLMISRTPEVTCVVVDVSHEDPEVKFNWYVDGVEVHNAKTKPREEQYNSTYRVVSVLTVLHQDWLNGKEYKCKVSNKALPAPIEKTISKAKGQPREPQVCTLPPSREEMTKNQVSLWCLVKGFYPSDIAVEWESNGQPENNYKTTPPVLDSDGSFFLYSKLTVDKSRWQQGNVFSCSVMHEALHNHYTQKSLSLSPGK
# light 1: B1 light 1
# light 2: B1 light 1 with Q27E, E31H, D32F, D34W, Y36L, M37V, N38H, A54R, P100W, K180D
# chain 2: QMQLVESGGGVVQPGRSLRLSCAASGFTFRTYGMHWVRQAPGKGLEWVAVIWYDGSNKHYADSVKGRFTITRDNSKNTLNLQMNSLRAEDTAVYYCARAPQWELVHEAFDIWGQGTMVTVSSGQPKAAPSVTLFPPSSEELQANKATLVCLISDFYPGAVTVAWKADSSPVKAGVETTTPSKQSNNKYAASSYLSLTPEQWKSHRSYSCQVTHEGSTVEKTVAPTECS
# B3: IL413TSLP-0002 (trispecific antibody, human IgG1, kappa, lambda)
# heavy: EVQLVESGGGLVQPGGSLRLSCAASGFTFSSYAMSWVRQAPGKGLEWVASISSGDTTYYPDSVKGRFTISRDNAKNSLYLQMNSLRAEDTAVYYCARNEGYYFGLTLWGQGTLVTVSSASTKGPSVFPKAPSSKSTSGGTAALGCLVKDYFPEPVTVSWNSGALTSGVHTFPAVLQSSGLYSLSSSVTVPSSSLGTQTYICNVNHKPSNTKVDKKVEPKSCDKTHTCPPCPAPEAAGAPSVFLFPPKPKDTLMISRTPEVTCVVVDVSHEDPEVKFNWYVDGVEVHNAKTKPREEQYNSTYRVVSVLTVLHQDWLNGKEYKCKVSNKALPAPIEKTISKAKGQPREPQVCTLPPSREEMTKNQVSLWCLVKGFYPSDIAVEWESNGQPENNYKTTPPVLDSDGSFFLYSKLTVDKSRWQQGNVFSCSVMHEALHNHYTQKSLSLSPGK
# chain 1: QMQLVESGGGVVQPGRSLRLSCAASGFTFRTYGMHWVRQAPGKGLEWVAVIWYDGSNKHYADSVKGRFTITRDNSKNTLNLQMNSLRAEDTAVYYCARAPQWELVHEAFDIWGQGTMVTVSSGQPKAAPSVTLFPPSSEELQANKATLVCLISDFYPGAVTVAWKADSSPVKAGVETTTPSKQSNNKYAASSYLSLTPEQWKSHRSYSCQVTHEGSTVEKTVAPTECSGGGGSEVTLRESGPALVKPTQTLTLTCTFSGFSLSNFGEGLSWIRQPPGKGLEWLAHIYWDDDKRYNPSLKSRLTISKDTSRNQVVLTMTNMDPVDTATYYCARRETVFYWYFDVWGQGTTVTVSSASTKGPSVFPEAPSSKSTSGGTAALGCLVKDYFPEPVTVSWNSGALTSGVHTFPAVLQSSGLYSLGSVVTVPSSSLGTQTYICNVNHKPSNTKVDKKVEPKSCDKTHTCPPCPAPEAAGAPSVFLFPPKPKDTLMISRTPEVTCVVVDVSHEDPEVKFNWYVDGVEVHNAKTKPREEQYNSTYRVVSVLTVLHQDWLNGKEYKCKVSNKALPAPIEKTISKAKGQPREPQVYTLPPCREEMTKNQVSLSCAVKGFYPSDIAVEWESNGQPENNYKTTPPVLDSDGSFFLVSKLTVDKSRWQQGNVFSCSVMHEALHNHYTQKSLSLSPGK
# light 1: B1 light 1 with Q27E, E31H, D32F, D34W, Y36L, M37V, N38H, A54R, P100W, K180D
# light 2: B1 light 1
# chain 2: B1 chain 2
# Target: T1, human TSLP (long form) (human, UniProt Q969D9 29-159, Biotinylated on the Avi tag in some assays; glycosylated (Expi293F expression))
# T1 construct: biotinylated in some assays; also called lfhTSLP; hTSLP
# Assay: bridging sandwich ELISA: human TSLP coated, Tri-Fab-Fc titrated, IL-13-FLAG added, detected with HRP anti-FLAG (OD450nm)
# Description: For this method, 25 μL/well of 1 μg/mL recombinant human TSLP (in PBS pH7.2) was coated onto a 384-well clear flat bottom Maxisorp plates (NUNC) overnight at 4° C. and blocked with PBS without Mg²⁺ and Ca²⁺ with 3% BSA. Serially diluted Tri-Fab-Fc variants were added to the plates and incubated for 1 hour at room temperature (RT). After washing away the unbound Tri-Fab-Fc by washing with buffer (PBS without Mg²⁺ and Ca²⁺ with 0.05% tween 20), 25 μL/well of 100 ng/mL IL-13-FLAG (Pfizer Inc) was added to the plates and incubated at RT for one hour. The Tri-Fab-Fc bound to both TSLP and IL-13 was detected by HRP conjugated anti-FLAG secondary antibody (Sigma, Cat #A8592).
row,Binder,EC50 (read off the curve) [nM]
1,B1,~0.6
2,B2,~0.6
3,B3,~0.5
